The target in this experiment is T1, human Kir2.1 channel, wild type (human), P63252.
T1 chain: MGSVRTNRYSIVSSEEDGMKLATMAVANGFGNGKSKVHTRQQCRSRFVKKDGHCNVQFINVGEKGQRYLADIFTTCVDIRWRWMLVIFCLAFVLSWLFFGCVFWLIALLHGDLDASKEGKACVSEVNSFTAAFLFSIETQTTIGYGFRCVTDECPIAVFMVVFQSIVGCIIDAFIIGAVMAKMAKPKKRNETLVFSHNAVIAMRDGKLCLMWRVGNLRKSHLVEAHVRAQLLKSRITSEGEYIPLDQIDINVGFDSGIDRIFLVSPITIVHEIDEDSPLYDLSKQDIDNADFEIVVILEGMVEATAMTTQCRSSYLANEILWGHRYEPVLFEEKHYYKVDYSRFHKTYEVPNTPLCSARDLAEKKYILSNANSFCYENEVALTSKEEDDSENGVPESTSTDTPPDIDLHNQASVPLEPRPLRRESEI
Kind of experiment: SEC. The note with it: remark: other sources report otherwise.

B1: human Kir2.1 channel, wild type, P63252 1-427 (natural protein)
chain: MGSVRTNRYSIVSSEEDGMKLATMAVANGFGNGKSKVHTRQQCRSRFVKKDGHCNVQFINVGEKGQRYLADIFTTCVDIRWRWMLVIFCLAFVLSWLFFGCVFWLIALLHGDLDASKEGKACVSEVNSFTAAFLFSIETQTTIGYGFRCVTDECPIAVFMVVFQSIVGCIIDAFIIGAVMAKMAKPKKRNETLVFSHNAVIAMRDGKLCLMWRVGNLRKSHLVEAHVRAQLLKSRITSEGEYIPLDQIDINVGFDSGIDRIFLVSPITIVHEIDEDSPLYDLSKQDIDNADFEIVVILEGMVEATAMTTQCRSSYLANEILWGHRYEPVLFEEKHYYKVDYSRFHKTYEVPNTPLCSARDLAEKKYILSNANSFCYENEVALTSKEEDDSENGVPESTSTDTPPDIDLHNQASVPLEPRPLRRESEI
Turning to B1, the stoichiometry N (in general, a count of units in the complex or per binding partner) was found to be 4.
